B1: MASP-1: MBP-associated serine protease, similar in structure to Clr and Cls (protein)
chain: HTVELNNMFGQIQSPGYPDSYPSDSEVTWNITVPDGFRIKLYFMHFNLESSYLCEYDYVKVETEDQVLATFCGRETTDTEQTPGQEVVLSPGSFMSITFRSDFSNEERFTGFDAHYMAVDVDECKEREDEELSCDHYCHNYIGGYYCSCRFGYILHTDNRTCRVECSDNLFTQRTGVITSPDFPNPYPKSSECLYTIELEEGFMVNLQFEDIFDIEDHPEVPCPYDYIKIKVGPKVLGPFCGEKAPEPISTQSHSVLILFHSDNSGENRGWRLSYRAAGNEPELQPPVHGKIEPSQAKYFFKDQVLVSCDTGYKVLKDNVEMDTFQIECLKDGTWSNKIPTCKIVDCRAPGELEHGLITFSTRNNLTTYKSEIKYSCQEPYYKMLNNNTGIYTCSAQGVWMNKVLGRSLPTCLPVCGLPKFSRKLMARIFNGRPAQKGTTPWIAMLSHLNGQPFCGGSLLGSSWIVTAAHCLHQSLDPKDPTLRDSDLLSPSDFKIILGKHWRLRSDENEQHLGVKHTTLHPKYDPNTFENDVALVELLESPVLNAFVMPICLPEGPQQEGAMVIVSGWGKQFLQRFPETLMEIEIPIVDHSTCQKAYAPLKKKVTRDMICAGEKEGGKDACSGDSGGPMVTLNRERGQWYLVGTVSWGDDCGKKDRYGVYSYIHHNKDWIQRVTGVRN
B2: MASP-2: mannan-binding lectin associated serine protease-2, polypeptide of SEQ ID NO:2 (protein, listed as Homo sapiens)
chain: MRLLTLLGLLCGSVATPLGPKWPEPVFGRLASPGFPGEYANDQERRWTLTAPPGYRLRLYFTHFDLELSHLCEYDFVKLSSGAKVLATLCGQESTDTERAPGKDTFYSLGSSLDITFRSDYSNEKPFTGFEAFYAAEDIDECQVAPGEAPTCDHHCHNHLGGFYCSCRAGYVLHRNKRTCSALCSGQVFTQRSGELSSPEYPRPYPKLSSCTYSISLEEGFSVILDFVESFDVETHPETLCPYEFLKIQTDREEHGPFCGKTLPHRIETKSNTVTITFVTDESGDHTGWKIHYTSTAQPCPYPMAPPNGHVSPVQAKYILKDSFSIFCETGYELLQGHLPLKSFTAVCQKDGSWDRPMPACSIVDCGPPDDLPSGRVEYITGPGVTTYKAVIQYSCEETFYTMKVNDGKYVCEADGFWTSSKGEKSLPVCEPVCGLSARTTGGRIYGGQKAKPGDFPWQVLILGGTTAAGALLYDNWVLTAAHAVYEQKHDASALDIRMGTLKRLSPHYTQAWSEAVFIHEGYTHDAGFDNDIALIKLNNKVVINSNITPICLPRKEAESFMRTDDIGTASGWGLTQRGFLARNLMYVDIPIVDHQKCTAAYEKPPYPRGSVTANMLCAGLESGGKDSCRGDSGGALVFLDSETERWFVGGIVSWGSMNCGEAGQYGVYTKVINYIPWIENIISDF

Test system: C4
Assay: C4 converting activity on Western blot of MBL/MASP preparation (C4b deposition from human serum)
Format: biochemical
Settings: blot incubated with human serum at 37° C., detection with anti-C4 antibody
Protocol: The C4 activating potentials of MASP-1 and MASP-2, and Clr and Cls, were compared. This was accomplished by separating a C1 preparation and an MBL/MASP preparation by SDS-PAGE followed by Western blotting. The blot was examined for C4 converting activity by incubation with human serum at 37° C., followed by detection of deposited C4b using anti-C4 antibodies.
C1 was purified by incubating IgG-coupled Sepharose beads with human serum at 4° C. The beads were washed and incubated at 37° C. for 30 minutes for activation of Clr and Cls. The beads were suspended in non-reducing sample buffer and, without boiling, subjected to SDS-PAGE, followed by blotting in the absence of SDS. A similar blot was made of an MBL preparation produced in the absence of enzyme inhibitors (The State Serum Institute, Copenhagen). Strips of the blots were incubated for 30 minutes at 37° C. with 1.10 (v/v) human MBL-deficient serum, depleted of Clq by fractionation on Biorex 70. The blots were developed with biotinylated F(ab)2 anti-C4 antibody followed by peroxidase-labelled streptavidin and luminescence reagent. Parallel blots were treated with a serine protease inhibitor (aminoethylbenzenesulfonyl fluoride), which was also present during incubation with serum. Other strips were directly developed with antibodies.

Molecule | C4 deposition at the position of the band
B1 | no C4 deposition was observed
B2 | C4 was deposited
